Laboratory results reported in patent US20120237528A1 (Janssen / Centocor, published 2012).
Where a chain is given by its changes, count along the chain named.

T1: Cynomolgous monkey (cyno) TF-ECD with His Tag (cynomolgus monkey, UniProt P13726 33-251 (human entry))
T1 construct: also called cyno antigen
T1 chain: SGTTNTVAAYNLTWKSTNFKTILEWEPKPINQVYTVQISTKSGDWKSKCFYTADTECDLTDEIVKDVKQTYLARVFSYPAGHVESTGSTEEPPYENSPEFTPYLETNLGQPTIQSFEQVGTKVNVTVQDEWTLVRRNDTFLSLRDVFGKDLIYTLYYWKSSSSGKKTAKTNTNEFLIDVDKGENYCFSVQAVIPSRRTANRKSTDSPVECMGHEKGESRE

B1: M60 (antibody, V domains shown)
VH: EVQLVQSGAEVKKPGESLRISCKGSGYTFITYWIEWVRQMPGKGLEWMGDILPGSGSTNYSPSFQGHVTISADKSISTAYLQWSSLKASDTAMYYCARSGYYGNSGFAYWGQGTLVTVSS
VL: DIVMTQSPLSLPVTPGEPASISCKSSQSLLSSGNQKNYLTWYLQKPGQSPQLLIYWASTRESGVPDRFSGSGSGTDFTLKISRVEAEDVGVYYCQNDYTYPLTFGQGTKLEIK
notes: complete MAb; FR4 is its own entry; also called H22/L4
B2: M31 (antibody, V domains shown)
VH: EVQLVESGGGLVQPGGSLRLSCAASGYTFITYWIEWVRQAPGKGLVWVSDILPGSGSTNYNENFKGRFTISRDNAKNTLYLQMNSLRAEDTAVYYCARSGYYGNSGFAYWGQGTLVTVSS
VL: B1 VL with S7T
notes: complete MAb; FR4 is its own entry; also called H18/L3
B3: M54 (antibody, V domains shown)
VH: EVQLVQSGAEVKKPGATVKISCKVSGYTFITYWIEWVQQAPGKGLEWMGDILPGSGSTNYNENFKGRVTITADTSTDTAYMELSSLRSEDTAVYYCATSGYYGNSGFAYWGQGTLVTVSS
VL: B1 VL with S7T, P12S, E17Q, S49P
notes: complete MAb; FR4 is its own entry; also called H21/L5
B4: M56 (antibody, V domains shown)
VH: B3 VH
VL: B1 VL with S7T, L11S, P15L, E17Q, Y42L, L43Q, K45R, S49P, Q51R, S73A
notes: complete MAb; FR4 is its own entry; also called H21/L7
B5: M32 (antibody, V domains shown)
VH: B2 VH
VL: B1 VL
notes: complete MAb; FR4 is its own entry; also called H18/L4
B6: M35 (antibody, V domains shown)
VH: B2 VH
VL: B1 VL with S7T, L11S, P15L, E17Q, Y42L, L43Q, K45R, S49P, Q51R, S73A
notes: complete MAb; FR4 is its own entry; also called H18/L7
B7: M33 (antibody, V domains shown)
VH: B2 VH
VL: B1 VL with S7T, P12S, E17Q, S49P
notes: complete MAb; FR4 is its own entry; also called H18/L5
B8: M30 (antibody, V domains shown)
VH: B2 VH
VL: DIVMTQSPDSLAVSLGERATINCKSSQSLLSSGNQKNYLTWYQQKPGQPPKLLIYWASTRESGVPDRFSGSGSGTDFTLTISSLQAEDVAVYYCQNDYTYPLTFGQGTKLEIK
notes: complete MAb; FR4 is its own entry; also called H18/L2
B9: M10 (antibody, V domains shown)
VH: B1 VH with S61N, P62E, S63N, Q65K
VL: B1 VL with S7T
notes: complete MAb; FR4 is its own entry; also called H15/L3
B10: M52 (antibody, V domains shown)
VH: B3 VH
VL: B1 VL with S7T
notes: complete MAb; FR4 is its own entry; also called H21/L3
B11: M46 (antibody, V domains shown)
VH: QVQLVQSGAEVKKPGASVKVSCKASGYTFITYWIEWVRQAPGQGLEWMGDILPGSGSTNYNENFKGRVTMTTDTSTSTAYMELRSLRSDDTAVYYCARSGYYGNSGFAYWGQGTLVTVSS
VL: B1 VL
notes: complete MAb; FR4 is its own entry; also called H20/L4
B12: M42 (antibody, V domains shown)
VH: B11 VH with A16S, M70I, T72A, T74E, R84S, D89E
VL: B1 VL with S7T, L11S, P15L, E17Q, Y42L, L43Q, K45R, S49P, Q51R, S73A
notes: complete MAb; FR4 is its own entry; also called H19/L7
B13: M68 (antibody, V domains shown)
VH: B11 VH with A16S, N61A, E62Q, N63K, K65Q, M70I, T72A, T74E, R84S, D89E
VL: B1 VL with S7T, P12S, E17Q, S49P
notes: complete MAb; FR4 is its own entry; also called H23/L5
B14: M26 (antibody, V domains shown)
VH: B11 VH with G44R, M70I, T72R, T76A, R84S, D89E
VL: B1 VL with S7T, P12S, E17Q, S49P
notes: complete MAb; FR4 is its own entry; also called H17/L5
B15: M51 (antibody, V domains shown)
VH: B3 VH
VL: B8 VL
notes: complete MAb; FR4 is its own entry; also called H21/L2
B16: M53 (antibody, V domains shown)
VH: B3 VH
VL: B1 VL
notes: complete MAb; FR4 is its own entry; also called H21/L4

These binders were tested against T2, endogenous human tissue factor on MDA-MB-231 breast cancer cells (human, UniProt P13726 33-295) (assay: cell-based or functional assay).

IL-8 Induction, Ave % inhibition	Binder
106%	B1

The binders below were run against T3, recombinant extracellular domain (ECD) of human TF, amino acid 1-219 of the mature chain, C-terminal His6-tag (human, UniProt P13726 33-251) (assay: direct ELISA, 50 ng/ml).
T3 construct: expressed in a mammalian system; used for ELISA and Biacore; biotinylated by NHS-ester for the Fab ELISA; also called His6-TF-ECD1-219; HumanTF1-219

binding result	Binder
binds	B2
binds	B3
binds	B4
binds	B5
binds	B6
binds	B7
binds	B8

What follows are binders tested against Innovin, lyophilized recombinant human tissue factor combined with phospholipids (human, UniProt P13726 33-295, limits assumed) (assay: cell-based or functional assay).

T½ Max (seconds), coagulation of human plasma	Binder
180 s	B1
196 s	B9
201 s	B10
195 s	B11
202 s	B12
207 s	B13
186 s	B14
207 s	B15

The binders below were run against T3, recombinant extracellular domain (ECD) … (assay: Biacore).

Kd	koff	kon	Binder
0.47 nM			B1
3.57 nM	0.000264 s⁻¹	74000 M⁻¹ s⁻¹	B10
0.49 nM	4.4e-05 s⁻¹	90000 M⁻¹ s⁻¹	B11
1.02 nM	8.2e-05 s⁻¹	80400 M⁻¹ s⁻¹	B12
1.6 nM	0.000103 s⁻¹	64300 M⁻¹ s⁻¹	B13
1.13 nM	9.3e-05 s⁻¹	82600 M⁻¹ s⁻¹	B14
2.9 nM	0.000235 s⁻¹	81100 M⁻¹ s⁻¹	B15

These binders were tested against T3, recombinant extracellular domain (ECD) … (assay: TF-ECD binding ELISA, chemiluminescent).

EC50	Binder
0.00835 µg/mL	B1
0.0105 µg/mL	B9

Target: T1, Cynomolgous monkey (cyno) TF-ECD with …
Test: TF-ECD binding ELISA, chemiluminescent

EC50	Binder
0.0178 µg/mL	B1
0.0196 µg/mL	B9

Target: T1, Cynomolgous monkey (cyno) TF-ECD with …
Test: direct ELISA of supernatants, chemiluminescent
Method: A solution Phase direct TF binding ELISA using chemiluminescent detection was used to rank the top binders from human framework adaptation library. The 96 well black maxisorp plates were coated with 100 uL of 4 ug/ml Goat anti human IgG FC diluted in carbonate-bicarbonate buffer, pH 9.4 at 4° C. overnight and then washed thrice with wash buffer (PBS with 0.05% Tween-20 solution) and blocked with […] 1% BSA/10 mM PBS solution for 1 hour followed by a washing as before. Samples or standards were diluted to 50 ng/ml in Assay Buffer (1% BSA in PBS+05% Tween) and 100 ul was added to the assay plate at room temperature for 1 hour with shaking. The plates were washed thrice and 100 ul per well of human or cynomologus TF-ECD with His Tag was added at 100 ng/ml diluted in Assay Buffer and incubate for 2 hours at room temperature. After washing, 100 ul per well of Qiagen peroxidase conjugated penta-his at 1:2000 dilution in assay buffer was added and incubated 1 hour at room temperature with shaking. The BM ChemiLum Substrate (BM Chemilum, POD, Roche) was made freshly at 1:100 dilution into Buffer and 100 ul added to the plates after a final wash. After 10 minutes the plates are read on Perkin Elmer Envision Reader, BM ChemiLum program.
For primary screening of library variants in crude supernatants, samples or controls were normalized to 50 ng/ml in spent FreeStyle 293 HEK media (Gibco) and assayed at single concentration determinations. In the present assay, the concentration of antibody was 5 ng (0.1 ml used) and the TF ECD and the antigen was His6-TF-ECD₁₋₂₁₉ used at a final concentration of 10 ng/well.

binding result	Binder
no binding (tested: 50 ng/ml)	B2
no binding (tested: 50 ng/ml)	B3
no binding (tested: 50 ng/ml)	B4
no binding (tested: 50 ng/ml)	B10
no binding (tested: 50 ng/ml)	B5
no binding (tested: 50 ng/ml)	B16
no binding (tested: 50 ng/ml)	B6
no binding (tested: 50 ng/ml)	B7
no binding (tested: 50 ng/ml)	B15
no binding (tested: 50 ng/ml)	B8

Target: T3, recombinant extracellular domain (ECD) …
Test: Biacore
Remark: another data set of the same source

Kd	Binder
0.47 nM	B1

Target: T1, Cynomolgous monkey (cyno) TF-ECD with …
Test: Biacore

Kd	Binder
1.31 nM	B1
1.57 nM	B9

Target: T2, endogenous human tissue factor on …
Test: cell-based or functional assay
Remark: another data set of the same source

% IL-8 Inhibition	Binder
99.6%	B1
90.7%	B9
67.7%	B10
82.5%	B11
86%	B12
89.8%	B13
79.1%	B14
71.5%	B15
